Data reported in patent US9096835B2, “DNA polymerase” (Medical Research Council, priority 2003, dated 2015).
“And” between values parts separate entries of the source, which are not always exact repeats. Identical values can stand only once. “Also recorded” adds a separate entry of the source.

What was measured:
[1] = tested on: primers with 3′ transversion mismatches; assay: Mismatch extension PCR assay; type: biochemical; settings: G•A, C•C, G•G mismatched primers
Description: (§1) A PCR assay was used to screen and rank clones. Briefly, clones were normalized for activity in PCR with matched primers 3, 4 and activity with mismatched primers 1 and 2 (1 μM each) determined at minimal cycle number (15-25 cycles). Extension capability for different mismatches was determined by the same assay using mismatch primers 2 (C•C mismatch), 5 (A•A mismatch), 6 (G•G mismatch), 7 (G•A mismatch) with matched primer 3 or primer 1 (A•G mismatch) with matched primer 4. Incorporation of unnatural substrates in 50 cycle PCR was carried out using standard conditions and 50 μM […] dNTPs (Promega) or 50 μM FITC-12-dATP (Perkin-Elmer), Rhodamine-5-dUTP (Perkin-Elmer) or Biotin-16-dUTP (Roche) with equivalent amounts of the other 3 dNTPs (all 50 μM). Long PCR was carried out using a two-step cycling protocol as described (22) 94° C. for 2 minutes, followed by 20 cycles of (94° C. 15 sec, 68° C. 30 min) using 5 ng of phage λ DNA (New England Biolabs) template and either primers 9, 10, 11 with primer 12 or primer 13 with primers 10, 14.

[2] = tested on: primer-template duplex with matched or mismatched 3′ terminus; assay: Steady-state extension kinetics, gel-based assay; type: biochemical; settings: incorporated base is dCTP
Description: Kinetic parameters were determined using a gel-based assay essentially as described (16). Primers 15, 16, 17 (3′ base=G, C, A respectively) were ^32P-labeled and annealed to one of template strands 18, 19, 20 (template base=C, G, A respectively) or 21 (template base C different context). Duplex substrates were used at 50 nM final concentration in 1× Taq buffer with various concentrations of enzyme and dNTP. Reactions were carried out at 60° C. for times whereby <20% of primer-template was utilized at the highest concentration of dNTP.
Extension and incorporation kinetics of M1 and M4 for a selection of mismatches were measured using a gel-based steady-state kinetic assay (Goodman) (Tables 1 & 2). M1 and M4 respectively extend a C•C mispair 390 and 75-fold more efficiently than wtTaq. […] The gain in extension efficiency derives predominantly from increased relative Vmax values for the mutant polymerases, while Km for nucleotide substrates remains largely unchanged. For most DNA polymerases the relative efficiency of extending a given mispair (f0ext) is similar to the relative efficiency of forming it (finc) (Goodman 1993, Goodman 1990, Washington 2001). Indeed, M1 and M4 respectively incorporate dCTP opposite template base C 206- and 29-fold more efficiently than wtTaq (Table 2).

[3] = target: matched and mismatched primer-template duplex; assay: Template affinity equilibrium binding assay; settings: not shown
Description: An equilibrium binding assay (12) was used to determine relative affinity of polymerases for the mismatched primer-templates used in the kinetics assays. Polymerases were preincubated at 60° C. in 1× Taq buffer with 50 nM ^32P-labeled matched primer-template and 50 nM unlabeled mismatched competitor primer-templates. Reactions were initiated by simultaneous addition of dCTP (200 μM) and trap DNA (XbaI/SalI-restricted sheared salmon sperm DNA, 4.5 mg/ml).

[4] = PCR with all four dNTPs replaced by αS dNTPs; type: biochemical; settings: 50 cycle PCR, 50 μM αS dNTPs
Description: as §1

[5] = tested on: primer-template DNA substrates; assay: Processivity primer extension assay with and without trap DNA; type: biochemical
Description: Processivity was measured using a primer extension assay the presence and absence of trap DNA. Termination probabilities were calculated according to the method of Kokoska et al.
Oligonucleotide primer 32 (5′-GCGGTGTAGAGACGAGTGCGGAG-3′) (SEQ ID NO: 117) was ^32P-labelled and annealed to the template 33 (5′-CTCTCACAAGCAGCCAGGCAAGCTCCGCACTCGTCTCTACACCGCTCCGC-3′ (SEQ ID NO: 118)) (at a primer/template ratio of molar 1/1.5). wtTaq (0.0025 nM; 0.025 nM; 0.25 nM), M1(0.05 nM; 0.5 nM; 5 nM), and M4 (0.05 nM; 0.5 nM; 5 nM) were preincubated with the primer-template DNA substrates (10 nM) in 10 mM Tris-HCl at pH 9.0, 5 mM MgCl2, 50 mM KCl, 0.1% Triton X 100 at 25° C. for 15 min. Reactions were initiated by addition of 100 μM dNTPs with or without trap DNA (1000-fold excess of unlabeled primer-templates). Reactions were performed at 60° C. for 2 min. […] Thus, in the presence of trap DNA, all DNA synthesis resulted from a single DNA binding event. Gel band intensities were calculated using a Phosphoimager and ImageQuant (both Molecular Dynamics) software. Percentage of polymerase molecules, which extended primers to the end of the template was calculated using the formula: In×100%/(I1+I2+ . . . +In), where In is the intensity of the band at position 22 or 23; I1, I2 . . . is the intensity of the band at position 1, 2 . . . . Termination probabilities (τ) were calculated according to the method of Kokoska et al^1, whereby t at a particular template position was calculated as the intensity of the band at this position divided by the sum of the intensity of this band and the band intensities of all longer products.

undamaged template = assay: Translesion replication assay, control; type: biochemical; settings: gel-extension assay, 60° C.
Description: Template primers 22 (undamaged) or 23 (containing a synthetic abasic site) were synthesized by Lofstrand Laboratories (Gaithersburg, Md.). Template primer 24 (containing a single cis-syn thymine dimer), was synthesized as described (34). Primer 25 was ^32P-labeled and annealed to one of the three templates 22, 23, 24 (at a primer template ratio of molar 1:1.5) and extended in 40 mM Tris.HCl at pH 8.0, 5 mM MgCl2, 100 μM of each dNTP, 10 mM DTT, 250 μg/ml BSA, 2.5% glycerol, 10 nM primer-template DNA and 0.1 Unit of polymerase at 60° C. for various times.

[6] = 3′-terminal base pair C · G (template base: 3′ primer base), matched

- Ratio of fext, fext (mutant polymerase)/fext (wtTaq) ([2]; 3′-terminal base pair A · A): 5.7
- Ratio of fext, fext (mutant polymerase)/fext (wtTaq) ([2]; 3′-terminal base pair A · G): 7.0
- Ratio of fext, fext (mutant polymerase)/fext (wtTaq) ([2]; 3′-terminal base pair C · C): 75 and 75.3
- Ratio of fext, fext (mutant polymerase)/fext (wtTaq) ([2]; 3′-terminal base pair G · A): 7.0
- Ratio of fext, fext (mutant polymerase)/fext (wtTaq) ([2]; 3′-terminal base pair G · G): 7.6
- dissociation constants for matched and mismatched primer-template duplex [3]: indistinguishable
- bound polymerase that extended primers to the end of the template ([5]; in the presence of trap DNA (single DNA binding event)): 15%
B1: M4: Taq mutant D58G, R74P, A109T, L245R, R343G, G370D, E520G, N583S, E694K, A743P; SEQ ID NO 2 (protein)
chain: MRGMLPLYEPKGRVLLVDGHHLAYRTFHALKGLTTSRGEPVQAVYGFAKSLLKALKEGGDAVIVVFDAKAPSFPHEAYGGYKAGRAPTPEDFPRQLALIKELVDLLGLTRLEVPGYEADDVLASLAKKAEKEGYEVRILTADKDLYQLLSDRIHVLHPEGYLITPAWLWEKYGLRPDQWADYRALTGDESDNLPGVKGIGEKTARKLLEEWGSLEALLKNLDRLKPAIREKILAHMDDLKLSWDRAKVRTDLPLEVDFAKRREPDRERLRAFLERLEFGSLLHEFGLLESPKALEEAPWPPPEGAFVGFVLSRKEPMWADLLALAAARGGRVHRAPEPYKALGDLKEARGLLAKDLSVLALREGLGLPPDDDPMLLAYLLDPSNTTPEGVARRYGGEWTEEAGERAALSERLFANLWGRLEGEERLLWLYREVERPLSAVLAHMEATGVRLDVAYLRALSLEVAEEIARLEAEVFRLAGHPFNLNSRDQLERVLFDELGLPAIGKTEKTGKRSTSAAVLGALREAHPIVEKILQYRELTKLKSTYIDPLPDLIHPRTGRLHTRFNQTATATGRLSSSDPNLQSIPVRTPLGQRIRRAFIAEEGWLLVALDYSQIELRVLAHLSGDENLIRVFQEGRDIHTETASWMFGVPREAVDPLMRRAAKTINFGVLYGMSAHRLSQELAIPYEEAQAFIKRYFQSFPKVRAWIEKTLEEGRRRGYVETLFGRRRYVPDLEARVKSVREPAERMAFNMPVQGTAADLMKLAMVKLFPRLEEMGARMLLQVHDELVLEAPKERAEAVARLAKEVMEGVYPLAVPLEVEVGIGEDWLSAKE
modifications: Mutant Thermus aquaticus DNA polymerase
- extension of 3′ transversion mismatches in PCR [1]: greatly increased ability to extend; also recorded: generate amplification products
- Vmax ([2]; 3′-terminal base pair A · A (template base: 3′ primer base)): 8.5 % Min^−1
- Km ([2]; 3′-terminal base pair A · A): 32.9 µM
- fext, f (mismatched 3′terminus)/f (matched terminus) ([2]; 3′-terminal base pair A · A): 3.8 × 10^−6
- Vmax ([2]; 3′-terminal base pair A · G (template base: 3′ primer base)): 50.0 % Min^−1
- Km ([2]; 3′-terminal base pair A · G): 259 µM
- fext, f (mismatched 3′terminus)/f (matched terminus) ([2]; 3′-terminal base pair A · G): 1.5 × 10^−6
- Vmax ([2]; 3′-terminal base pair C · C (template base: 3′ primer base)): 11.1 % Min^−1
- Km ([2]; 3′-terminal base pair C · C): 36.6 µM
- fext, f (mismatched 3′terminus)/f (matched terminus) ([2]; 3′-terminal base pair C · C): 4.5 × 10^−6
- Km [2, 6]: 0.012 µM
- Vmax [2, 6]: 817.0 % Min^−1
- Vmax ([2]; 3′-terminal base pair G · A (template base: 3′ primer base)): 7.5 % Min^−1
- Km ([2]; 3′-terminal base pair G · A): 29 µM
- fext, f (mismatched 3′terminus)/f (matched terminus) ([2]; 3′-terminal base pair G · A): 3.8 × 10^−6
- Vmax ([2]; 3′-terminal base pair G · G (template base: 3′ primer base)): 70.6 % Min^−1
- Km ([2]; 3′-terminal base pair G · G): 107 µM
- fext, f (mismatched 3′terminus)/f (matched terminus) ([2]; 3′-terminal base pair G · G): 9.7 × 10^−6
- PCR amplification with all four αS dNTPs [4]: to lesser extent
- processivity compared with wtTaq ([5]; even at the lowest enzyme concentrations): processivity equal (or higher) than wtTaq
- termination probability ([5]; positions 2 through 5): 13-35%
- termination probability ([5]; positions 6 and 7): 2-4%
- primer extension on undamaged template (undamaged template): efficiently and rapidly extended primers to the end of the template
